Target: CsrA-His6 (Escherichia coli, UniProt P69913 1-61)
Test: EMSA; 10 mM Mg2+; apparent KD, cooperative equation; single shift; EMSA: 0.5 nM RNA, 10 mM MgCl2, 100 mM KCl, 32.5 ng yeast RNA, 20 mM DTT, 7.5% glycerol, 4 U SUPERasin, 37 C 30 min (pH not stated); footprint: 2 nM RNA, 10 mM Tris-HCl pH 7.5, 10 mM MgCl2, 100 mM KCl, 40 ng yeast RNA, 7.5% glycerol, 37 C
Conditions: protein: recombinant; tags: His6 (C-terminal per name); chain copies: 2; label: 5'-32P

Sequence of CsrA-His6 (P69913 whole entry): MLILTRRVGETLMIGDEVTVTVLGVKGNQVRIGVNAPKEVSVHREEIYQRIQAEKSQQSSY

B1: dps EMSA transcript (ssRNA)
RNA: GGGUUAAUUACUGGGACAUAACAUCAAGAGGAUAUGAAAUUAUGAGUACCGC
Q: B1 was tested. Which Kd did it give?
A: 25 nM
